Values joined by “and” are separate entries in the source; they are usually repeats but may differ in a detail not shown here. Identical values can stand only once. Blank lines part the entries; values can stand above or below the substance they belong to.
Columns and labels:
[1] = biological target: Human Hsp90β (heat shock protein 90 beta), wild type (human) (UniProt P08238); experiment: native gel or EMSA; native PAGE: 20 ug protein (1 mg/ml) on 4-20% polyacrylamide gels in native loading buffer (Tris pH 6.8, 50% glycerol); directly after purification and after incubation at 4°C or 25°C in PBS pH 7.4 for up to 48 h
[2] = biological target: Human Hsp90β (heat shock protein 90 beta), wild type (human) (UniProt P08238); experiment: AUC; sedimentation velocity, 42,000 rpm, 20°C, 11-15 uM protein, absorbance at 280 nm, continuous c(S) distribution (SEDFIT); peroxynitrite-treated samples dialyzed beforehand
[3] = biological target: Human Hsp90β with 3-nitrotyrosine at position 33 (human) (UniProt P08238); experiment: as above
[4] = biological target: Human Hsp90β with 3-nitrotyrosine at position 33 (human) (UniProt P08238); experiment: native gel or EMSA; native PAGE: 20 ug protein (1 mg/ml) on 4-20% polyacrylamide gels in native loading buffer (Tris pH 6.8, 50% glycerol); directly after purification and after incubation at 4°C or 25°C in PBS pH 7.4 for up to 48 h
[5] = biological target: Human Hsp90β with 3-nitrotyrosine at position 33 (human) (UniProt P08238); experiment: AUC; sedimentation velocity, 42,000 rpm, 20°C, 11-15 uM protein, absorbance at 280 nm, continuous c(S) distribution (SEDFIT); peroxynitrite-treated samples dialyzed beforehand; remark: listed apart in the source
[6] = biological target: Human Hsp90β with 3-nitrotyrosine at position 56 (human) (UniProt P08238); experiment: native gel or EMSA; native PAGE: 20 ug protein (1 mg/ml) on 4-20% polyacrylamide gels in native loading buffer (Tris pH 6.8, 50% glycerol); directly after purification and after incubation at 4°C or 25°C in PBS pH 7.4 for up to 48 h
[7] = biological target: Human Hsp90β with 3-nitrotyrosine at position 56 (human) (UniProt P08238); experiment: AUC; sedimentation velocity, 42,000 rpm, 20°C, 11-15 uM protein, absorbance at 280 nm, continuous c(S) distribution (SEDFIT); peroxynitrite-treated samples dialyzed beforehand
[8] = biological target: Human Hsp90β with 3-nitrotyrosine at positions 33 and 56 (human) (UniProt P08238); experiment: as above
[9] = biological target: Human Hsp90β treated with 0.5 mM peroxynitrite (human) (UniProt P08238); experiment: as above

Human Hsp90β (heat shock protein 90 beta), wild type, P08238 1-724 (natural protein; other documents disagree on this pair), sequence (P08238 whole entry): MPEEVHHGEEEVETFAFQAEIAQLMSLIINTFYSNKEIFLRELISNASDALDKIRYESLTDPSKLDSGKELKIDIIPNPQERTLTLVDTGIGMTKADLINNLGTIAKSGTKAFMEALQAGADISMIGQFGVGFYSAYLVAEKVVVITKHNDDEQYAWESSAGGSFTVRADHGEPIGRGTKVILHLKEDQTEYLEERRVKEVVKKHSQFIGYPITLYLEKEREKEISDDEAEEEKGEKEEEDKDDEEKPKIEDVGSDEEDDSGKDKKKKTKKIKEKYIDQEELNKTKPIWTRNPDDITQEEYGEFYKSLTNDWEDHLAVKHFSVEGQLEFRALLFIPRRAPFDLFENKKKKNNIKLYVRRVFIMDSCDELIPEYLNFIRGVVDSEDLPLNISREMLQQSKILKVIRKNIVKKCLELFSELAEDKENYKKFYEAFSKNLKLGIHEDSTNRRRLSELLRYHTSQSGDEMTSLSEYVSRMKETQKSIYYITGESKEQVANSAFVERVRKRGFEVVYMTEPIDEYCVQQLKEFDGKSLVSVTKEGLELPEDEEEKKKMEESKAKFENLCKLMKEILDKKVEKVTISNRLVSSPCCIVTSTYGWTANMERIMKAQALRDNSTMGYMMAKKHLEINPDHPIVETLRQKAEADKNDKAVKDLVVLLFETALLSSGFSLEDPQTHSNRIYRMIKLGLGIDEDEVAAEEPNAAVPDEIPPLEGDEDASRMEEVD
Human Hsp90β with 3-nitrotyrosine at positions 33 and 56, P08238 1-724 (natural protein; 3-nitrotyrosine at 33 and at 56 (sole oxidative modifications); 3-nitrotyrosine at 33 and at 56 (sole oxidative, sequence (P08238 whole entry): as above

stoichiometry N [1]: 2
stoichiometry N [2]: 2
Substance: Human Hsp90β (heat shock protein 90 beta), wild type, P08238 1-724 (natural protein; other documents disagree on this pair)

stoichiometry N [3]: 6
stoichiometry N [4]: 2
stoichiometry N [5]: 2
Substance: Human Hsp90β with 3-nitrotyrosine at position 33, P08238 1-724 (natural protein; 3-nitrotyrosine at 33 (sole oxidative modification); 3-nitrotyrosine at 33 (sole oxidative modification); other documents disagree on this pair)

stoichiometry N [6]: 2
stoichiometry N [7]: 2
Substance: Human Hsp90β with 3-nitrotyrosine at position 56, P08238 1-724 (natural protein; 3-nitrotyrosine at 56 (sole oxidative modification); 3-nitrotyrosine at 56 (sole oxidative modification); other documents disagree on this pair)

stoichiometry N [8]: 2 and 6
Substance: Human Hsp90β with 3-nitrotyrosine at positions 33 and 56, P08238 1-724 (natural protein; 3-nitrotyrosine at 33 and at 56 (sole oxidative modifications); 3-nitrotyrosine at 33 and at 56 (sole oxidative modifications); other documents disagree on this pair)

stoichiometry N [9]: 2 and 4
Substance: Human Hsp90β treated with 0.5 mM peroxynitrite, P08238 1-724 (natural protein; nitration of Y33, Y56, Y276, Y484 and Y596 after treatment with 0.5 mM peroxynitrite; nitration of Y33, Y56, Y276, Y484 and Y596 after treatment with 0.5 mM peroxynitrite; other documents disagree on this pair)

Source: publication PMC12599251
